{"source": "patent US20110091994A1", "about": "“Methods for Screening Compounds for Treating and/or Preventing an Hepatitis C Virus Infection” (priority 2008, published 2011);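 for IMAP Y2H IMAP1 (number of IST): yeast two-hybrid screens using HCV genotype 1b proteins fused to Gal4-DB as baits against prey cDNA libraries from human spleen and foetal brain, IMAP1 via transformation and IMAP2 via mating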;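 for IMAP Y2H IMAP2 (number of IST): yeast two-hybrid screens using HCV genotype 1b proteins fused to Gal4-DB as baits against prey cDNA libraries from human spleen and foetal brain, IMAP1 via transformation and IMAP2 via mating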;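 for Interaction with viral protein: yeast two-hybrid screens using HCV genotype 1b proteins fused to Gal4-DB as baits against prey cDNA libraries from human spleen and foetal brain, IMAP1 via transformation and IMAP2 via mating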", "molecules": {"B1": {"name": "CD5L (protein, UniProt O43866 20-347, looked up)", "CD5 antigen-like": "SPSGVRLVGGLHRCEGRVEVEQKGQWGTVCDDGWDIKDVAVLCRELGCGAASGTPSGILYEPPAEKEQKVLIQSVSCTGTEDTLAQCEQEEVYDCSHDEDAGASCENPESSFSPVPEGVRLADGPGHCKGRVEVKHQNQWYTVCQTGWSLRAAKVVCRQLGCGRAVLTQKRCNKHAYGRKPIWLSQMSCSGREATLQDCPSGPWGKNTCNHDEDTWVECEDPFDLRLVGGDNLCSGRLEVLHKGVWGSVCDDNWGEKEDQVVCKQLGCGKSLSPSFRDRKCYGPGVGRIWLDNVRCSGEEQSLEQCQHRFWGFHDCTHQEDVAVICSG"}, "B2": {"name": "CTGF (protein, UniProt P29279 27-349, looked up)", "CCN family member 2": "QNCSGPCRCPDEPAPRCPAGVSLVLDGCGCCRVCAKQLGELCTERDPCDPHKGLFCHFGSPANRKIGVCTAKDGAPCIFGGTVYRSGESFQSSCKYQCTCLDGAVGCMPLCSMDVRLPSPDCPFPRRVKLPGKCCEEWVCDEPKDQTVVGPALAAYRLEDTFGPDPTMIRANCLVQTTEWSACSKTCGMGISTRVTNDNASCRLEKQSRLCMVRPCEADLEENIKKGKKCIRTPKISKPIKFELSGCTSMKTYRAKFCGVCTDGRCCTPHRTTTLPVEFKCPDGEVMKKNMMFIKTCACHYNCPGDNDIFESLYYRKMYGDMA"}, "B3": {"name": "CHPF (protein, UniProt Q8IZ52 1-775, looked up)", "Chondroitin sulfate synthase 2": "MRASLLLSVLRPAGPVAVGISLGFTLSLLSVTWVEEPCGPGPPQPGDSELPPRGNTNAARRPNSVQPGAEREKPGAGEGAGENWEPRVLPYHPAQPGQAAKKAVRTRYISTELGIRQRLLVAVLTSQTTLPTLGVAVNRTLGHRLERVVFLTGARGRRAPPGMAVVTLGEERPIGHLHLALRHLLEQHGDDFDWFFLVPDTTYTEAHGLARLTGHLSLASAAHLYLGRPQDFIGGEPTPGRYCHGGFGVLLSRMLLQQLRPHLEGCRNDIVSARPDEWLGRCILDATGVGCTGDHEGVHYSHLELSPGEPVQEGDPHFRSALTAHPVRDPVHMYQLHKAFARAELERTYQEIQELQWEIQNTSHLAVDGDQAAAWPVGIPAPSRPASRFEVLRWDYFTEQHAFSCADGSPRCPLRGADRADVADVLGTALEELNRRYHPALRLQKQQLVNGYRRFDPARGMEYTLDLQLEALTPQGGRRPLTRRVQLLRPLSRVEILPVPYVTEASRLTVLLPLAAAERDLAPGFLEAFATAALEPGDAAAALTLLLLYEPRQAQRVAHADVFAPVKAHVAELERRFPGARVPWLSVQTAAPSPLRLMDLLSKKHPLDTLFLLAGPDTVLTPDFLNRCRMHAISGWQAFFPMHFQAFHPAVAPPQGPGPPELGRDTGRFDRQAASEACFYNSDYVAARGRLAAASEQEEELLESLDVYELFLHFSSLHVLRAVEPALLQRYRAQTCSARLSEDLYHRCLQSVLEGLGSRTQLAMLLFEQEQGNST"}, "B4": {"name": "CCHCR1 (protein, UniProt Q8TD31 1-782, looked up)", "Coiled-coil alpha-helical rod …": "MFPPSGSTGLIPPSHFQARPLSTLPRMAPTWLSDIPLVQPPGHQDVSERRLDTQRPQVTMWERDVSSDRQEPGRRGRSWGLEGSQALSQQAEVIVRQLQELRRLEEEVRLLRETSLQQKMRLEAQAMELEALARAEKAGRAEAEGLRAALAGAEVVRKNLEEGSQRELEEVQRLHQEQLSSLTQAHEEALSSLTSKAEGLEKSLSSLETRRAGEAKELAEAQREAELLRKQLSKTQEDLEAQVTLVENLRKYVGEQVPSEVHSQTWELERQKLLETMQHLQEDRDSLHATAELLQVRVQSLTHILALQEEELTRKVQPSDSLEPEFTRKCQSLLNRWREKVFALMVQLKAQELEHSDSVKQLKGQVASLQEKVTSQSQEQAILQRSLQDKAAEVEVERMGAKGLQLELSRAQEARRRWQQQTASAEEQLRLVVNAVSSSQIWLETTMAKVEGAAAQLPSLNNRLSYAVRKVHTIRGLIARKLALAQLRQESCPLPPPVTDVSLELQQLREERNRLDAELQLSARLIQQEVGRAREQGEAERQQLSKVAQQLEQELQQTQESLASLGLQLEVARQGQQESTEEAASLRQELTQQQELYGQALQEKVAEVETRLREQLSDTERRLNEARREHAKAVVSLRQIQRRAAQEKERSQELRRLQEEARKEEGQRLARRLQELERDKNLMLATLQQEGLLSRYKQQRLLTVLPSLLDKKKSVVSSPRPPECSASAPVAAAVPTRESIKGSLSVLLDDLQDLSEAISKEEAVCQGDNLDRCSSSNPQMSS"}, "B5": {"name": "DEAF1 (protein, UniProt O75398 1-565, looked up)", "Deformed epidermal …": "MEDSDSAAKQLGLAEAAAVAAAAAVAAAAAAAAGGEAEEPVLSRDEDSEEDADSEAERETPRVTAVAVMAAEPGHMDMGAEALPGPDEAAAAAAFAEVTTVTVANVGAAADNVFTTSVANAASISGHVLSGRTALQIGDSLNTEKATLIVVHTDGSIVETTGLKGPAAPLTPGPQSPPTPLAPGQEKGGTKYNWDPSVYDSELPVRCRNISGTLYKNRLGSGGRGRCIKQGENWYSPTEFEAMAGRASSKDWKRSIRYAGRPLQCLIQDGILNPHAASCTCAACCDDMTLSGPVRLFVPYKRRKKENELPTTPVKKDSPKNITLLPATAATTFTVTPSGQITTSGALTFDRASTVEATAVISESPAQGDVFAGATVQEASVQPPCRASHPEPHYPGYQDSCQIAPFPEAALPTSHPKIVLTSLPALAVPPPTPTKAAPPALVNGLELSEPRSWLYLEEMVNSLLNTAQQLKTLFEQAKHASTYREAATNQAKIHADAERKEQSCVNCGREAMSECTGCHKVNYCSTFCQRKDWKDHQHICGQSAAVTVQADEVHVAESVMEKVTV"}, "B6": {"name": "CCDC66 (protein, UniProt A2RUB6 1-948, looked up)", "Coiled-coil domain-containing …": "MNLGDGLKLETELLDGKTKLILSPYEHKSKISVKMGNKAKIAKCPLRTKTGHILKSTQDTCIGSEKLLQKKPVGSETSQAKGEKNGMTFSSTKDLCKQCIDKDCLHIQKEISPATPNMQKTRNTVNTSLVGKQKPHKKHITAENMKSSLVCLTQDQLQQILMTVNQGNRSLSLTENGKEAKSQYSLYLNSISNQPKDENIMGLFKKTEMVSSVPAENKSVLNEHQETSKQCEQKIAIENEWKPADIFSTLGERECDRSSLEAKKAQWRKELDEQVALKKKEKEVSEKWNDPWKKSESDKIIWEKHQILDQSRETVLLEHPFSAVKQELQRKWIEELNKQIEDDRQRKIEEKIIYSKGEEHDRWAMHFDSLKSYPGSQSQLFSQSTHKQPEYFCVSPDTQELADVSSVCTPTTGSQVEPSEEEHIAKPIKDVVMANSKKTNFLRSMTALLDPAQIEERDRRRQKQLEHQKAITAQVEEKRRKKQLEEEQRKKEEQEEELRLAQEREEMQKQYEEDILKQKQKEEIMTLKTNELFQTMQRAQELAQRLKQEQRIRELAQKGHDTSRLIKNLGVDTIQMEYNASNISNSRHDSDEISGKMNTYMNSTTSKKDTGVQTDDLNIGIFTNAESHCGSLMERDITNCSSPEISAELIGQFSTKKNKQELTQDKGASLEKENNRCNDQCNQFTRIEKQTKHMKKYPKRPDWNINKPPKRYIPASEKYPKQLQKQREEKKVRRQMELLHLVEKNNPGHLSQNRGISPEIFHSSHQETESKLRWHLVKKEEEPLNIHSFSKERSPSSPVPVVKNRTQQTQNTLHLPLKNSSYERENLISGSNQTELSSGISESSHFIPYVRTNEIYYLDPDAPLSGPSTQDPQYQNSQDCGQKRQLFDSDCVRDPLLNPNMVKNRDRQQAILKGLSELRQGLLQKQKELESSLLPLAENQEESFGSSF"}, "B7": {"name": "CORO1B (protein, UniProt Q9BR76 1-489, looked up)", "Coronin-1B": "MSFRKVVRQSKFRHVFGQPVKNDQCYEDIRVSRVTWDSTFCAVNPKFLAVIVEASGGGAFLVLPLSKTGRIDKAYPTVCGHTGPVLDIDWCPHNDEVIASGSEDCTVMVWQIPENGLTSPLTEPVVVLEGHTKRVGIIAWHPTARNVLLSAGCDNVVLIWNVGTAEELYRLDSLHPDLIYNVSWNHNGSLFCSACKDKSVRIIDPRRGTLVAEREKAHEGARPMRAIFLADGKVFTTGFSRMSERQLALWDPENLEEPMALQELDSSNGALLPFYDPDTSVVYVCGKGDSSIRYFEITEEPPYIHFLNTFTSKEPQRGMGSMPKRGLEVSKCEIARFYKLHERKCEPIVMTVPRKSDLFQDDLYPDTAGPEAALEAEEWVSGRDADPILISLREAYVPSKQRDLKISRRNVLSDSRPAMAPGSSHLGAPASTTTAADATPSGSLARAGEAGKLEEVMQELRALRALVKEQGDRICRLEEQLGRMENGDA"}}, "data": [{"biological_target": "T1, HCV proteins (Hepatitis C virus genotype 1b, UniProt Q9WMX2)", "T1 construct": "expressed in transfected cells", "T1 sequence (Q9WMX2 1027-1657)": "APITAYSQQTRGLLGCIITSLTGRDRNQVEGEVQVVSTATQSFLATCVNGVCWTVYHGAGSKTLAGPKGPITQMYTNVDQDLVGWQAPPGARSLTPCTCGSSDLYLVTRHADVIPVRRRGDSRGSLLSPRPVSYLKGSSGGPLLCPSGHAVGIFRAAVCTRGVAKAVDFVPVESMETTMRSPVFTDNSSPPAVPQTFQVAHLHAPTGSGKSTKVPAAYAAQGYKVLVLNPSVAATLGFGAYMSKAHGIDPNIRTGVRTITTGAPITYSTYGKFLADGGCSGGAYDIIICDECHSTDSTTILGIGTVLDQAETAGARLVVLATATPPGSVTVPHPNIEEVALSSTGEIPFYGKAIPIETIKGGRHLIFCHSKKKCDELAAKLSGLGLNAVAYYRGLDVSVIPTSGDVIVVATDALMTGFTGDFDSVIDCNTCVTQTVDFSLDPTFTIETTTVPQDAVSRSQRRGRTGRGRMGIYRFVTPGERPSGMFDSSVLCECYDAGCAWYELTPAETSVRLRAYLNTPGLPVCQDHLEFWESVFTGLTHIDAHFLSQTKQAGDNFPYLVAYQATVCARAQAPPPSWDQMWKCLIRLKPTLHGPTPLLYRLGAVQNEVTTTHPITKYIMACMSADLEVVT", "experiment": "Validation by Y2H pairwise matrices;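 note: yeast two-hybrid pairwise tests of interactions first found in Y2H screens of HCV bait proteins against human cDNA libraries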", "assay_type": "binding", "conditions": "validation of interaction with HCV protein NS3", "description": "A comprehensive interactome map between HCV and cellular proteins was generated by Y2H screens. Twenty seven constructs encoding full-length HCV mature proteins or discrete domains were cloned using a recombination-based cloning system (10) (FIG. 6). Four independent screens were performed with each HCV bait protein, probing two distinct human cDNA libraries (Supplementary Methods). […] Two validation methods were used to assess the confidence of the IMAP Y2H dataset.", "values": [{"molecule": "B1", "Y2H matrices": "+"}, {"molecule": "B2", "Y2H matrices": "+"}, {"molecule": "B3", "Y2H matrices": "+"}, {"molecule": "B4", "Y2H matrices": "+"}, {"molecule": "B5", "Y2H matrices": "+"}, {"molecule": "B6", "Y2H matrices": "+"}, {"molecule": "B7", "Y2H matrices": "+"}]}, {"biological_target": "T2, HCV ORFs (Gal4-DB fusions) (Hepatitis C virus genotype 1b, UniProt Q9WMX2)", "T2 construct": "expressed in transfected cells; host or cells: Saccharomyces cerevisiae MAV203 (IMAP1) / AH109 (IMAP2)", "T2 sequence (Q9WMX2 1027-1657)": "as above", "experiment": "not given", "assay_type": "binding, HCV genotype 1b, isolate con1", "conditions": "HCV protein NS3 as bait; human protein as prey", "values": [{"molecule": "B1", "IMAP Y2H IMAP1 (number of IST)": 1, "IMAP Y2H IMAP2 (number of IST)": 1}, {"molecule": "B2", "IMAP Y2H IMAP1 (number of IST)": 1}, {"molecule": "B3", "IMAP Y2H IMAP1 (number of IST)": 1}, {"molecule": "B4", "IMAP Y2H IMAP1 (number of IST)": 1, "IMAP Y2H IMAP2 (number of IST)": 2}, {"molecule": "B5", "IMAP Y2H IMAP1 (number of IST)": 6}, {"molecule": "B6", "IMAP Y2H IMAP1 (number of IST)": 1, "IMAP Y2H IMAP2 (number of IST)": 4}, {"molecule": "B7", "IMAP Y2H IMAP1 (number of IST)": 8}]}, {"system": "HCV ORFs (Gal4-DB fusions)", "experiment": "not given", "assay_type": "binding, HCV genotype 1b, isolate con1", "conditions": "human protein listed by gene symbol; the value names the HCV protein it interacts with", "values": [{"molecule": "B1", "Interaction with viral protein": "NS3"}, {"molecule": "B2", "Interaction with viral protein": "NS3"}, {"molecule": "B3", "Interaction with viral protein": "NS3"}, {"molecule": "B4", "Interaction with viral protein": "NS3"}, {"molecule": "B5", "Interaction with viral protein": "NS3"}, {"molecule": "B6", "Interaction with viral protein": "NS3"}, {"molecule": "B7", "Interaction with viral protein": "NS3"}]}]}
